Data reported in US20180201655A1 (University of California, published 2018).
Substitutions are numbered along the chain they refer to.

B1: R10-10 (other)
chain: MKTCEQRVNIATLLTENKKKIVDKASQDLWRRHPDLIAPGGIAFSQRDRALCLRDYGWYLHLITFCLLAGDKGPIESIGLIGIREMYNSLGVPVPAMMESIRCLKEASLSLLDEEDANETAPYFDYIIKAMS
modifications: biliverdin (BV) covalently attached
notes: Evolved APCα fluorescent protein of round 10; runs as a homodimer on native PAGE; also called R10-10+BV; not shown: polyhistidine tag on the C terminus
B2: small ultra-red fluorescent protein (smURFP) + BV (other)
chain: B1 chain with C4S, Y59F, G82S
modifications: biliverdin (BV) covalently attached at C52; predominant species has one BV per homodimer
notes: purified from E. coli co-expressing HO-1; runs as a homodimer on native PAGE; not shown: polyhistidine tag on the C terminus
B3: smURFP + BVMe2 (other)
chain: B1 chain with C4S, Y59F, G82S
modifications: biliverdin dimethyl ester (BVMe2) attached, a single BVMe2 per homodimer
notes: smURFP purified without chromophore, BVMe2 added in vitro; detected by mass spectrometry as the homodimer + BVMe2; also called smURFP+1BVMe2; not shown: polyhistidine tag on the C terminus
B4: R4-1 (other)
chain: MKTGEQRVKIATLLSENEKKIVDKASQDLWRRRPDFIAPGGIAFSQRERALCLRDYRWYLHLITFCLLAGDKDPIESIGLIGIREMYNSLGVPVPGMMESIRCLKEASLSLLDEEDAKETAPYFDYIIKAMS
modifications: biliverdin (BV) covalently attached
notes: Evolved APCα fluorescent protein of round 4; runs as a tetramer on native PAGE; also called R4-1+BV; not shown: polyhistidine tag on the C terminus

Columns and labels:
[1] = target: the molecule itself; experiment: native PAGE, self-association (homodimer)
From the text: (§1) FIG. 9A-FIG. 9C: Quaternary structure characterization of smURFP and TDsmURFP. (A) Native PAGE gel of APCαFPs. Monomeric IFP1.4 (36.5 kD) was ran as a reference. R4-1 runs as a tetramer, while R10-10 and smURFP run as a homodimer (32 kD). (B) Native PAGE gel of TDsmURFP. Monomeric IFP1.4 (36.5 kD) and tandem dimer Tomato (tdTomato, 54.2 kD) were ran as references. TDsmURFP (32.9 kD) runs slightly higher than smURFP due to 23 amino acid linker. (C) SDS denaturing PAGE gel of smURFP and TDsmURFP. BV was imaged by addition of zinc. All FPs show correct MW and covalently attached BV. […] (A-C) Each FP was run on two lanes. EX is excitation maximum and EM is emission maximum.
(§2) smURFP ran as a 32-kD homodimer on a native gel. R10-10 ran as a32-kD homodimer, while R4-1 was atetramer (FIG. 9a). Tandem dimer smURFP (TDsmURFP) was created by adding a 23-amino-acid linker between subunits and had ˜70% fluorescence of smURFP in bacteria (FIG. 2c). TDsmURFP (33 kD) ran near smURFP. tdTomato (54 kD) and IFP1.4 (37 kD) confirmed the dimeric nature of smURFP (FIG. 9a,b). To confirm covalent BV attachment, the FPs were run on a denaturing gel, and BV was detected with zinc²⁵. […] C52 is evolutionarily conserved among all APCαs and covalently attaches PCB (FIGS. 6 and 10a). The C52S mutation eliminated smURFP fluorescence (FIG. 10b,c), and C52 remains the BV attachment site. […]

[2] = target: the molecule itself; experiment: stoichiometry column of the table of biophysical properties (self-association)
[3] = target: the molecule itself; experiment: native PAGE, self-association (tetramer)
From the text: as §1, §2

Row | Protein | binding result [2] | also measured
1 | B1 |  | binding result [1]: binds
2 | B2 | binds | 
3 | B3 | binds | 
4 | B4 |  | binding result [3]: binds
